US9212226B2, “Amino acid sequences directed against CXCR4 and other GPCRs and compounds comprising the same” (Ablynx N.V., priority 2008, dated 2015)
One block for each molecule: values may come before it.

What was measured:
CXCR4 = CXCR4 (Homo sapiens, UniProt P61073); assay: Phage ELISA binding assay on CHO-CXCR4 versus CHO membranes; parameters: expressed in transfected cells; host or cells: CHO cells (membrane preparation); settings: monoclonal phages, CHO-CXCR4 vs CHO membranes
Procedure: FIG. 2. Results from Phage ELISA (as described in example 1.5).
In order to determine binding specificity of the Nanobodies, 15 ul of the produced phage were tested in an Phage ELISA binding assay.
In short, 2 ug in 100 ul PBS of membrane expressing either CXCR4 (CHO-CXCR4) or a non relevant GPCR(CHO) were coated directly on Maxisorp microtiter plates (Nunc) overnight at 4 C. Free binding sites were blocked using 4% Marvel in PBS for 1 h. Next, 15 ul of monoclonal phages was added in 100 ul 1% Marvel PBS for 2 hours. […] Binding specificity (binding to CHO-CXCR4) was determined based on OD values compared to controls (binding to CHO).

CXCR3 = target: T1, CXCR3 (Homo sapiens, UniProt P49682); assay: Binding of [125I]-238D2 / [125I]-238D4 to membranes from HEK293T cells expressing CXCR4 or CXCR3; settings: radiolabelled Nanobody
T1 sequence (P49682 1-368): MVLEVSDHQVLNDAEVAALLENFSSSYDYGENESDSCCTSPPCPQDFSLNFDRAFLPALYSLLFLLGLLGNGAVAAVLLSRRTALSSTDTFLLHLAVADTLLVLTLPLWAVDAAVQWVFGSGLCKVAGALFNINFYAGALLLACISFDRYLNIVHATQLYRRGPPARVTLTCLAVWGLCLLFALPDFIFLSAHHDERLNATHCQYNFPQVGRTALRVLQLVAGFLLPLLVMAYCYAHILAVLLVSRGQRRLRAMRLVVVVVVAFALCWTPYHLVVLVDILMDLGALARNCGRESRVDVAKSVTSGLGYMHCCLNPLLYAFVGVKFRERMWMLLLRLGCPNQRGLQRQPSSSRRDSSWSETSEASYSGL

Sequence of CXCR4 (P61073 with tags, fused parts or gaps isoform P61073-2 limits assumed): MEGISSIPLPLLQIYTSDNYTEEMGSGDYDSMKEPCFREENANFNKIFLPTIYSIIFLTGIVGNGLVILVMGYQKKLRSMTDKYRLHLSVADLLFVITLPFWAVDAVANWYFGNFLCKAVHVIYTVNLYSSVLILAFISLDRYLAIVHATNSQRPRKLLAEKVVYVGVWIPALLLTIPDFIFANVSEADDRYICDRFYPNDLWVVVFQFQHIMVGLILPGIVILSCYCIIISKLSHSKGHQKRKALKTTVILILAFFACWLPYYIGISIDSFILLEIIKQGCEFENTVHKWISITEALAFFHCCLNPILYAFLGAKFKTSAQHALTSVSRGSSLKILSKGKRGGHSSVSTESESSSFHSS

specificity toward CXCR4 expressing membrane compared to non-expressing membrane (CXCR4): high specificity
B1: 238F3: Nanobody (VHH) raised against human CXCR4, SEQ ID NO: 247 (protein)
VHH: EVQLVESGGGLAQAGGSLRLSCAASGRTYAMGWFRQAPGKEREFVTTSRLITDNIIYADSVKGRFTLTRDNGKNTVYLQMDSLKPDDTAVYFCAARQNYSRSVFGAKDYDYWGQGTQVTVSS
modifications: Nanobody, Nanobody constructs or fragments thereof

binding to CXCR4 membranes compared to CXCR3 membranes (CXCR3): selectively bind
B2: [^125I]-238D4: 125I-labeled Nanobody 238D4 used as radioligand (protein)
VHH: EVQLMESGGGLVQAGGSLRLSCAASGRTFNNYAMGWFRRAPGKEREFVAAITRSGVRSGVSAIYGDSVKDRFTISRDNAKNTLYLQMNSLKPEDTAVYTCAASAIGSGALRRFEYDYSGQGTQVTVSS

binding to CXCR4 membranes compared to CXCR3 membranes (CXCR3): selectively bind
B3: [^125I]-238D2: 125I-labeled Nanobody 238D2 used as radioligand (protein)
VHH: EVQLVESGGGLVQTGGSLRLSCAASGFTFSSYAMSWVRQAPGKGLEWVSGIKSSGDSTRYAGSVKGRFTISRDNAKNMLYLQMYSLKPEDTAVYYCAKSRVSRTGLYTYDNRGQGTQVTVSS
